Assays:
[1] = tested on: CpGs of the hMLH1 promoter region; assay: Bisulfite conversion and sequencing of hMLH1 promoter; assay type: cell-based, human; conditions: HEK293T; Casilio-ME days 3-6 post transfection; AzaC treatment for 6 days
Source text: Casilio-mediated delivery of demethylation enzymes alters methylation state of targeted genomic locus. Evidence that the shown Casilio-ME-induced activation of hMLH1 transcription is a result of TET1-mediated cytosine demethylation within the targeted promoter region came from DNA sequencing of hMLH1 promoter after bisulfite conversion. Bisulfite treatment of genomic DNA deaminates unmethylated cytosines to produce uracils that are subsequently replicated as thymine. However, methylated cytosines are protected from conversion to uracils, thus allowing one to determine cytosine methylation states at single-nucleotide resolution by direct sequencing.
To assess changes in methylation states of CpG island within hMLH1 promoter region after Casilio-ME-mediated transcription activation, time course experiment were carried out where cells were collected 3, 4, 5, and 6 days post transfection, for analysis of cytosine methylation as well as transcription activation, and protein expression. HEK293T were transfected with Casilio-ME components that includes Ct-fusion PUFa-TET1 effector and a combination of 2 sgRNAs (RNA guides 3 and 7).
Bisulfite conversion and sequencing. Genomic DNAs were extracted using all AllPrep DNA/RNA/Protein Mini Kit according the manufacturer's instructions (Qiagen). […]

[2] = tested on: hMLH1 expression (methylation-silenced hMLH1 promoter) in HEK293T cells; assay: hMLH1 mRNA levels by TaqMan qRT-PCR in transfected HEK293T cells; assay type: cell-based, human
Summary of the method: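 HEK293T cells transfected with dCas9/Casilio-ME TET1-effector fusions plus sgRNAs, harvested 60 h (or 3 days) post-transfection; some cells also given 2.5 or 5 μM 5-azacytidine daily. hMLH1 mRNA by TaqMan qRT-PCR, GAPDH-normalized, delta-delta-Ct relative to control samples.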

[3] = tested on: MLH1 protein in HEK293T cells; assay: Western blot of MLH1 protein with anti-hMLH1 monoclonal antibody; assay type: cell-based, human; conditions: HEK293T collected 3 day after transfection
Procedure: To determine the effect of Casilio-ME targeting on MLH1 protein synthesis, Western blot analyses were performed on total protein extracted from HEK293T transfected cells as well as untransfected HEK293 and AzaC-treated HEK293T cells using anti-hMLH1 monoclonal antibody. […] Casilio-ME-mediated induction of MLH1 synthesis is still remarkable and could be improved by, for example, tilling multiple guide RNAs to augment the range and efficiency of CpG demethylation to achieving better activation of hMLH1 expression.
Western blot analysis. Protein from cell extracts (30 μg) were separated by electrophoresis on 10% SDS-polyacrylamide gels and then transferred to nitrocellulose membranes at 100 V for 1 hour using Bjerrum Schafer-Nielsen Buffer with SDS. Blocked membrane in 5% Blotting-Grade Blocker (BioRad) in TBS-T were then incubated overnight at 4° C. with the indicated antibodies, and the protein bands were detected using Horseradish peroxidase-conjugated secondary antibodies and Clarity Western ECL Substrate according to manufacturer's instructions (BioRad). Gels were imaged using a G:Box (Syngene).

[4] = tested on: SOX2 gene expression (SOX2 promoter) in HEK293T cells; assay: SOX2 expression by quantitative reverse-transcription PCR after Dnmt effector targeting; assay type: cell-based; conditions: guides targeting SOX2 promoter, compared to direct dCas9 fusions
Procedure: Establishment of a dCas9-expressing cell line. The day prior to transfection, Lenti-X 293T cells were seeded into 6-well plates at 1.2 million cells per well. The cells were transfected with the supercoiled packaging plasmids (pLP1 (gag/pol), pLP2 (rev), and VSV-G (envelope)) and a dCas9 lentiviral expression plasmid through Lipofectamine 3000 reagent (Invitrogen). At 6 h posttransfection, medium was exchanged for fresh. At 24 h posttransfection, 2 ml of medium containing the lentivirus were collected and centrifuged for 10 minutes at 2,000 rpm to remove cellular debris. The supernatant was filtered utilizing a […] pore filter (Millipore), and the lentivirus was frozen at −80° C. until needed. HEK293T cells, seeded into a 12-well plate at 150,000 cells per well, were transduced with 500 μl of the dCas9 lentivirus in culture medium supplemented with 5 μg/ml polybrene for 12 hours, and subsequently selected with Blasticidin antibiotics on the third day post transduction.
Transfection. HEK293T, and HEK293T/dCas9 cell lines were seeded into 12-well plates at 150,000 cells per well. […] At 3 day post-transfection, the cells were sorted for GFP (sgRNA expression constructs are marked by GFP) with fluorescence-activated cell sorting (FACS) and re-plated into 12 or 24-well plates.
Quantitative reverse-transcription PCR. […]

For `Nc1ncn([C@@H]2O[C@H](CO)[C@@H](O)[C@H]2O)c(=O)n1` [5′azacytidine, 5-Azacytidine], the “frequency of bisulfite conversion (cytosine demethylation) at CpGs of hMLH1 promoter” value [1] was “increased bisulfite conversion frequency on multiple CpG sites within the promoter region”.

B1: GADD45A-PUFa-TET1(CD): GADD45A at N-terminus of PUFa-TET1(CD); SEQ ID NO:104 (protein)
chain: MTLEEFSAGEQKTERMDKVGDALEEVLSKALSQRTITVGVYEAAKLLNVDPDNVVLCLLAADEDDDRDVALQIHFTLIQAFCCENDINILRVSNPGRLAELLLLETDAGPAASEGAEQPPDLHCVLVTNPHSSQWKDPALSQLICFCRESRYMDQWVPVINLPERSRTGAATMIDGGGGSDPKKKRKVDPKKKRKVDPKKKRKVGSTGSRNDGGGGSGGGGSGGGGSGRAGILPPKKKRKVSRGRSRLLEDFRNNRYPNLQLREIAGHIMEFSQDQHGSRFIQLKLERATPAERQLVFNEILQAAYQLMVDVFGNYVIQKFFEFGSLEQKLALAERIRGHVLSLALQMYGSRVIEKALEFIPSDQQNEMVRELDGHVLKCVKDQNGNHVVQKCIECVQPQSLQFIIDAFKGQVFALSTHPYGCRVIQRILEHCLPDQTLPILEELHQHTEQLVQDQYGNYVIQHVLEHGRPEDKSKIVAEIRGNVLVLSQHKFASNVVEKCVTHASRTERAVLIDEVCTMNDGPHSALYTMMKDQYANYVVQKMIDVAEPGQRKIVMHKIRPHIATLRKYTYGKHILAKLEKYYMKNGVDLGDPKKKRKVDPKKKRKVGGRGGGGSGGGGSGGGGSGPAELPTCSCLDRVIQKDKGPYYTHLGAGPSVAAVREIMENRYGQKGNAIRIEIVVYTGKEGKSSHGCPIAKWVLRRSSDEEKVLCLVRQRTGHHCPTAVMVVLIMVWDGIPLPMADRLYTELTENLKSYNGHPTDRRCTLNENRTCTCQGIDPETCGASFSFGCSWSMYFNGCKFGRSPSPRRFRIDPSSPLHEKNLEDNLQSLATRLAPIYKQYAPVAYQNQVEYENVARECRLGSKEGRPFSGVTACLDFCAHPHRDIHNMNNGSTVVCTLTREDNRSLGVIPQDEQLHVLPLYKLSDTDEFGSKEGMEAKIKSGAIEVLAPRRKKRTCFTQPVPRSGKKRAAMMTEVLAHKIRAVEKKPIPRIKRKNNSTTTNNSKPSSLPTLGSNTETVQPEVKSETEPHFILKSSDNTKTYSLMPSAPHPVKEASPGFSWSPKTASATPAPLKNDATASCGFSERSSTPHCTMPSGRLSGANAAAADGPGISQLGEVAPLPTLSAPVMEPLINSEPSTGVTEPLTPHQPNHQPSFLTSPQDLASSPMEEDEQHSEADEPPSDEPLSDDPLSPAEEKLPHIDEYWSDSEHIFLDANIGGVAIAPAHGSVLIECARRELHATTPVEHPNRNHPTRLSLVFYQHKNLNKPQHGFELNKIKFEAKEAKNKKMKASEQKDQAANEGPEQSSEVNELNQIPSHKALTLTHDNVVTVSPYALTHVAGPYNHWVID
With B1 the “enhancement of hMLH1 expression relative to PUFa-TET1(CD) alone” value ([2]; GADD45A two-in-one effectors, HEK293T, TaqMan) was “approximately 9 fold”, the “ranking of activation among GADD45A and TET1(CD) fusion configurations” value ([2]; methylation-silenced hMLH1) was “highest activity” and the “MLH1 protein amount by Western blot (whole cell extracts)” value [3] was “higher protein amounts”.

B2: Dnmt3a-PUF: Dnmt3a catalytic region fused to N-terminus of PUFa; SEQ ID NO:65 (protein)
chain: MGPANHDQEFDPPKVYPPVPAEKRKPIRVLSLFDGIATGLLVLKDLGIQVDRYIASEVCEDSITVGMVRHQGKIMYVGDVRSVTQKHIQEWGPFDLVIGGSPCNDLSIVNPARKGLYEGTGRLFFEFYRLLHDARPKEGDDRPFFWLFENVVAMGVSDKRDISRFLESNPVMIDAKEVSAAHRARYFWGNLPGMNRPLASTVNDKLELQECLEHGRIAKFSKVRTITTRSNSIKQGKDQHFPVFMNEKEDILWCTEMERVFGFPVHYTDVSNMSRLARQRLLGRSWSVPVIRHLFAPLKEYFACVIDGGGGSDPKKKRKVDPKKKRKVDPKKKRKVGSTGSRNDGGGGSGGGGSGGGGSGRAGILPPKKKRKVSRGRSRLLEDFRNNRYPNLQLREIAGHIMEFSQDQHGSRFIQLKLERATPAERQLVFNEILQAAYQLMVDVFGNYVIQKFFEFGSLEQKLALAERIRGHVLSLALQMYGSRVIEKALEFIPSDQQNEMVRELDGHVLKCVKDQNGNHVVQKCIECVQPQSLQFIIDAFKGQVFALSTHPYGCRVIQRILEHCLPDQTLPILEELHQHTEQLVQDQYGNYVIQHVLEHGRPEDKSKIVAEIRGNVLVLSQHKFASNVVEKCVTHASRTERAVLIDEVCTMNDGPHSALYTMMKDQYANYVVQKMIDVAEPGQRKIVMHKIRPHIATLRKYTYGKHILAKLEKYYMKNGVDLGDPKKKRKVDPKKKRKVGGRGGGGSGGGGSGGGGSGPA
For B2, the “repression of SOX2 gene expression” value [4] was “more robust repression of SOX2 gene expression compared to direct fusions”.
